Reference: paper PMC10716038, “Talin and kindlin use integrin tail allostery and direct binding to activate integrins” (Nature Structural & Molecular Biology, 2023)
Several values for one entry are separate records, joined by “and”; a condition that tells them apart may be missing. Identical values can stand only once. Like-named read-outs stand apart in the source and are kept apart here. Values belong to the molecule of their own block, whether it stands above or below them. No end group written: not given here.

B2: talin-1 head domain (THD1) (domain or fragment)
chain: MVALSLKISIGNVVKTMQFEPSTMVYDACRMIRERIPEALAGPPNDFGLFLSDDDPKKGIWLEAGKALDYYMLRNGDTMEYRKKQRPLKIRMLDGTVKTIMVDDSKTVTDMLMTICARIGITNHDEYSLVRELMEEKKDEGTGTLRKDKTLLRDEKKMEKLKQKLHTDDELNWLDHGRTLREQGVEEHETLLLRRKFFYSDQNVDSRDPVQLNLLYVQARDDILNGSHPVSFDKACEFAGFQCQIQFGPHNEQKHKAGFLDLKDFLPKEYVKQKGERKIFQAHKNCGQMSEIEAKVRYVKLARSLKTYGVSFFLVKEKMKGKNKLVPRLLGITKECVMRVDEKTKEVIQEWSLTNIKRWAASPKSFTLDFGDYQDGYYSVQTTEGEQIAQLIAGYIDIILKKKKS

Tests used:
[1] = target: ATTO 488-labelled β1-CT (488–β1-CT) (UniProt P05556); test: MST; ATTO 488-labelled β-CT peptide (50–200 nM) held constant, one unlabelled protein titrated; 20 mM Tris pH 7.5, 200 mM NaCl, 1 mM TCEP, 0.05% Tween-20; apparent affinities (near-saturation only)
[2] = target: ATTO 488-labelled β1-CT^Y795A (UniProt P05556); test: as above
ATTO 488-labelled β1-CT^Y795A, sequence (P05556 752-798 Y795A): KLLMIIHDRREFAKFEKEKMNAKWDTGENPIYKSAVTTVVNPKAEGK

[3] = target: ATTO 488-labelled β1-CT^Y783A (UniProt P05556); test: as above
ATTO 488-labelled β1-CT^Y783A, sequence (P05556 752-798 Y783A): as the sequence (P05556 752-798 Y795A) above, with Y32A, A44Y counted along it

[4] = target: ATTO 488-labeled β1–spacer–CT (UniProt P09055); test: MST; apparent; THD1 titrated to 488–β1-spacer-CT in the presence of 30-35 µM KIND2; MST buffer
[5] = target: ATTO 488-labelled β1–spacer–CT (UniProt P05556); test: MST; ATTO 488-labelled β-CT peptide (50–200 nM) held constant, one unlabelled protein titrated; 20 mM Tris pH 7.5, 200 mM NaCl, 1 mM TCEP, 0.05% Tween-20; apparent affinities (near-saturation only)
[6] = target: ATTO 488-labelled β1–spacer–CT (UniProt P05556); test: MST; as a7, with a second unlabelled protein present at near-saturating concentration (named in the quantity or in the printed words); apparent constants (Kd,app*)
[7] = target: ATTO 488-labeled β1–spacer–CT (UniProt P09055); test: MST; unlabelled protein titrated to 50-200 nM ATTO 488-labelled β-CT peptide, no third protein; 20 mM Tris pH 7.5, 200 mM NaCl, 1 mM TCEP, 0.05% Tween-20; Kd of individual titrations (in S0002 mean and sd, n = 2)
[8] = target: ATTO 488-labeled β1–spacer–CT (UniProt P09055); test: MST; apparent; KIND2-Y13A titrated to 488–β3-CT or KIND2 to 488–β1-spacer-CT in the presence of 300-400 µM THD1; MST buffer
[9] = target: ATTO 488-labeled β1–spacer–CT (UniProt P09055); test: MST; unlabelled protein titrated to 50-200 nM ATTO 488-labelled β-CT peptide, no third protein; 20 mM Tris pH 7.5, 200 mM NaCl, 1 mM TCEP, 0.05% Tween-20; Kd of individual titrations (in S0002 mean and sd, n = 2); remark: listed apart in the source
[10] = target: ATTO 488-labelled β1–spacer–CT (UniProt P05556); test: MST; ATTO 488-labelled β-CT peptide (50–200 nM) held constant, one unlabelled protein titrated; 20 mM Tris pH 7.5, 200 mM NaCl, 1 mM TCEP, 0.05% Tween-20; apparent affinities (near-saturation only); remark: listed apart in the source
[11] = target: β1-TM–CT Y783A (THD1-binding impaired) in nanodiscs (UniProt P09055); test: flow cytometry-based reporter-displacement assay (FC-RDA) on beads; biotinylated TM–CT in 10% PIP3/90% DMPC nanodiscs on streptavidin beads; reporter 50 nM 647–KIND2, unlabelled competitor titrated; 20 mM Tris pH 7.5, 200 mM NaCl, room temperature; IC50 of individual experiments; charged lipids contribute to the binding
[12] = target: T1, β1-TM–CT Y783A (THD1-binding impaired) in nanodiscs (UniProt P09055 726-798, Y783A, biotin (biotin-maleimide)); test: FACS; 10% PIP3 nanodiscs
[13] = target: T2, β1 transmembrane and cytoplasmic tail polypeptide (β1-TM–CT) in nanodiscs (UniProt P05556 726-798, biotin (biotin-maleimide)); test: FACS; 10% PIP3 nanodiscs
T2 chain: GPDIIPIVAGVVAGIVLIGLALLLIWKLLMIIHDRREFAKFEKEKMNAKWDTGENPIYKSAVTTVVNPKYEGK

[14] = target: T3, α5-TM lacking the cytoplasmic domain (tailless α5-TM) in nanodiscs (UniProt P11688 993-1025, biotin (biotin-maleimide)); test: FACS; 10% PIP3 nanodiscs
T3 chain: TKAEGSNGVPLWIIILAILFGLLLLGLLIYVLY

[15] = target: T4, β3 transmembrane and cytoplasmic tail polypeptide (β3-TM–CT) in nanodiscs (UniProt O54890 715-787, biotin (biotin-maleimide)); test: FACS; 10% PIP3 nanodiscs
T4 chain: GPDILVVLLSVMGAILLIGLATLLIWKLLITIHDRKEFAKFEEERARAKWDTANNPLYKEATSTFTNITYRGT

[16] = target: T1, β1-TM–CT Y783A (THD1-binding impaired) …; test: FACS; 10% PIP2 nanodiscs
[17] = target: T2, β1 transmembrane and cytoplasmic tail …; test: FACS; 10% PIP2 nanodiscs
[18] = target: β1-TM–CT Y795A (KIND2-binding impaired) in nanodiscs (UniProt P09055 726-798, Y795A, biotin (biotin-maleimide)); test: FACS; 10% PIP2 nanodiscs
[19] = target: T3, α5-TM lacking the cytoplasmic domain …; test: FACS; 10% PIP2 nanodiscs
[20] = target: T4, β3 transmembrane and cytoplasmic tail …; test: FACS; 10% PIP2 nanodiscs
[21] = target: B2; test: MST
[22] = target: T5, kindlin-2 (KIND2) (UniProt Q8CIB5 1-680); test: MST
T5 chain: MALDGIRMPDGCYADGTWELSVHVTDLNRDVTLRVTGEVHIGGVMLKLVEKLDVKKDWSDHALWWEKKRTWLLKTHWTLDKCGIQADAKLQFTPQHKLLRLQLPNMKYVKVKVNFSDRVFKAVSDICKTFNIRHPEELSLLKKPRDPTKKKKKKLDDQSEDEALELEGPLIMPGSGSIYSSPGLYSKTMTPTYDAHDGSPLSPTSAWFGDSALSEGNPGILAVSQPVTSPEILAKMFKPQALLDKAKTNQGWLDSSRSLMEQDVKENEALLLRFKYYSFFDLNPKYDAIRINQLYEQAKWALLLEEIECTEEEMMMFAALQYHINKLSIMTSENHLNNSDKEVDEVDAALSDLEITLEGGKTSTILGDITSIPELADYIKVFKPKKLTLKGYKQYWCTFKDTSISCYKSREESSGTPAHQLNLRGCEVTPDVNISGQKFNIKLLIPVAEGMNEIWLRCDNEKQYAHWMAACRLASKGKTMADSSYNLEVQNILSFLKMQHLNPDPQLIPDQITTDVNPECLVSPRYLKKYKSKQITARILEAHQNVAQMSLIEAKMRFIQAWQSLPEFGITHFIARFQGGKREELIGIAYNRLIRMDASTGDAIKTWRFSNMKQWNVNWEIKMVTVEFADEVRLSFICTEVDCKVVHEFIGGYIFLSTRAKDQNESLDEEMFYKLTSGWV

Molecule: B2
- IC50 [12]: 0.427 µM
- IC50 [13]: 0.092 µM
- IC50 [14]: 0.411 µM
- IC50 [15]: 0.083 µM
- IC50 [16]: 0.307 µM
- IC50 [17]: 0.073 µM
- IC50 [18]: 0.098 µM
- IC50 [19]: 0.274 µM
- IC50 [20]: 0.066 µM

Molecule: {ATTO 488}-KLLITIHDRKEFAKFEEERARAKWDTANNPLAKEATSTFTNITYRGT [ATTO 488-labelled β3-CT^Y772A]
- Kd [21]: 511 µM
- Kd [22]: 15.5 µM

Further lines, results first:

- Kd of the kindlin contribution (fit of concentrations up to 5 µM) [1]: 2.9 µM
- Kd of the talin contribution (fit of concentrations above 5 µM) [1]: 25 µM
- Kd [2]: 470 µM
- Kd [3]: 4.8 µM
Molecule: TLN1-F3–ΔKIND2 fusion protein

- Kd [4]: 254 µM and 320 µM and 262 µM
- Kd [5]: 181 µM
- apparent Kd (Kd,app*) in the presence of KIND2 [6]: 279 µM
- Kd [7]: 178 µM and 171 µM and 193 µM
Molecule: talin-1 head domain (THD1) (from UniProt P26039 1-405) (domain or fragment)

- Kd [8]: 6.09 µM and 3.02 µM and 8.05 µM
- Kd [9]: 5.47 µM and 5.42 µM and 5.12 µM
- Kd [10]: 5 µM
- apparent Kd (Kd,app*) in the presence of THD1 [6]: 6 µM
- IC50 [11]: 0.297 µM and 0.278 µM and 0.387 µM
B1: kindlin-2 (KIND2) (natural protein)
chain: MALDGIRMPDGCYADGTWELSVHVTDLNRDVTLRVTGEVHIGGVMLKLVEKLDVKKDWSDHALWWEKKRTWLLKTHWTLDKCGIQADAKLQFTPQHKLLRLQLPNMKYVKVKVNFSDRVFKAVSDICKTFNIRHPEELSLLKKPRDPTKKKKKKLDDQSEDEALELEGPLIMPGSGSIYSSPGLYSKTMTPTYDAHDGSPLSPTSAWFGDSALSEGNPGILAVSQPVTSPEILAKMFKPQALLDKAKTNQGWLDSSRSLMEQDVKENEALLLRFKYYSFFDLNPKYDAIRINQLYEQAKWALLLEEIECTEEEMMMFAALQYHINKLSIMTSENHLNNSDKEVDEVDAALSDLEITLEGGKTSTILGDITSIPELADYIKVFKPKKLTLKGYKQYWCTFKDTSISCYKSREESSGTPAHQLNLRGCEVTPDVNISGQKFNIKLLIPVAEGMNEIWLRCDNEKQYAHWMAACRLASKGKTMADSSYNLEVQNILSFLKMQHLNPDPQLIPDQITTDVNPECLVSPRYLKKYKSKQITARILEAHQNVAQMSLIEAKMRFIQAWQSLPEFGITHFIARFQGGKREELIGIAYNRLIRMDASTGDAIKTWRFSNMKQWNVNWEIKMVTVEFADEVRLSFICTEVDCKVVHEFIGGYIFLSTRAKDQNESLDEEMFYKLTSGWV
